Publication PMC8346283

Biological target: AmHv1, Hv1-type proton channel of Acropora millepora, tagged with fluorescent proteins (Acropora millepora)
Test: FRET or BRET; spectral FRET (sensitized emission of the acceptor) in HEK293 cells co-expressing mCerulean-AmHv1 (donor) and mCitrine-AmHv1 (acceptor); apparent FRET efficiency against Id/Ia from 134 cells, fitted to a model of random assembly into a dimer

AmHv1, Hv1-type proton channel of Acropora millepora, tagged with fluorescent proteins (natural protein)
stoichiometry N: 2
